For one protein, Kd results are on record in publication PMC3181147 (Structure (London, England : 1993), 2010).

This data set deals with the molecule itself. In words: AUC.

By Kd is commonly meant a measure of binding affinity in units of concentration. High values mean a looser complex, low ones a tighter complex.

B1: phosphorylated intracellular domain of PknB_(1-330) (kinase domain and juxtamembrane linker) (domain or fragment)
chain: MTTPSHLSDRYELGEILGFGGMSEVHLARDLRLHRDVAVKVLRADLARDPSFYLRFRREAQNAAALNHPAIVAVYDTGEAETPAGPLPYIVMEYVDGVTLRDIVHTEGPMTPKRAIEVIADACQALNFSHQNGIIHRDVKPANIMISATNAVKVMDFGIARAIADSGNSVTQTAAVIGTAQYLSPEQARGDSVDARSDVYSLGCVLYEVLTGEPPFTGDSPVSVAYQHVREDPIPPSARHEGLSADLDAVVLKALAKNPENRYQTAAEMRADLVRVHNGEPPEAPKVLTDAERTSLLSSAAGNLSGPRTDPLPRQDLDDTDRDRSIGSVG
As to B1, the Kd was approximately 2900 µM.
